The text below walks through data of patent publication US20250019444A1 (published 2025).

The target in the test is T1, ULBP6 (NKG2D natural ligand) (Homo sapiens (Human), UniProt Q5VY80 26-218).
T1 sequence: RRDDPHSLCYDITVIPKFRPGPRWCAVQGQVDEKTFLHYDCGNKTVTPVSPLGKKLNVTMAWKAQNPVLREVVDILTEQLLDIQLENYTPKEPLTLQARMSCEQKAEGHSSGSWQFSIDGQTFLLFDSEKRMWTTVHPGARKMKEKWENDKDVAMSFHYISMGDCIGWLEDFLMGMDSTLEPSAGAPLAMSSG
In words: SPR, injection over captured mouse Fc-human NKG2D, 25 C. The source says:
Briefly, mouse Fc-human NKG2D was captured using an anti-mouse Fc antibody immobilized on a CM5 chip at a density of approximately 100 RU. […] Biacore 8K evaluation software was used for all data analysis.

B1: soluble mouse Fc-human NKG2D dimer (Fc fusion, UniProt P26718 73-216, looked up)
chain: IWSAVFLNSLFNQEVQIPLTESYCGPCPKNWICYKNNCYQFFDESKNWYESQASCMSQNASLLKVYSKEDQDLLKLVKSYHWMGLVHIPTNGSWQWEDGSILSPNLLTIIEMQKGDCALYASSFKGYIENCSTPNTYICMQRTV
notes: also called mFc-hNKG2D; fusion protein of human NKG2D and murine Fc; not shown: murine Fc
In the case of B1, the binding result is listed as “binds”.
